Data taken from paper PMC11528232 (Cell Reports Medicine, 2024).

Tests used:
FcRn = FcRn (UniProt P55899); assay: SPR
FcγRIIIA_(F158) = FcγRIIIA_(F158) (UniProt P08637); assay: SPR
FcγRIIIA_(V158) = assay: SPR
FcγRI = FcγRI (UniProt P12314); assay: SPR
FcγRIIA_(H131) = FcγRIIA_(H131) (UniProt P12318); assay: SPR
human Claudin18.2 = human Claudin18.2 (Homo sapiens, UniProt P56856-2); assay: flow cytometry on cells

FcγRIIA_(H131), sequence (P12318 34-317): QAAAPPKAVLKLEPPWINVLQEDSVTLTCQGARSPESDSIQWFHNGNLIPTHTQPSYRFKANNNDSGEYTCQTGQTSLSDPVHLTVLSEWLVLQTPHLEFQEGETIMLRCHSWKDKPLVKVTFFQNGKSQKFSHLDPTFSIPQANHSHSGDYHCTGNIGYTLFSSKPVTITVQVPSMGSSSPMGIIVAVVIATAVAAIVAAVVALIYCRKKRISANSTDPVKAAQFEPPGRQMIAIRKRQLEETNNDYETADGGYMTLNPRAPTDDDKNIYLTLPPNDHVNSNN
FcγRIIIA_(F158), sequence (P08637 17-254): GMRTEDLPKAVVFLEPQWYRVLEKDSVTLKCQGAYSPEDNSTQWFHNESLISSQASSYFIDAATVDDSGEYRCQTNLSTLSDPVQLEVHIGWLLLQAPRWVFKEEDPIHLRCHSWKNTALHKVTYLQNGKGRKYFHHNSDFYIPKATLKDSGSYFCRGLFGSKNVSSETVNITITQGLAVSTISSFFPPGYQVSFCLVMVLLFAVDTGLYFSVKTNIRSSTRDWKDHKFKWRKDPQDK
FcγRIIIA_(V158), sequence (P08637 17-208): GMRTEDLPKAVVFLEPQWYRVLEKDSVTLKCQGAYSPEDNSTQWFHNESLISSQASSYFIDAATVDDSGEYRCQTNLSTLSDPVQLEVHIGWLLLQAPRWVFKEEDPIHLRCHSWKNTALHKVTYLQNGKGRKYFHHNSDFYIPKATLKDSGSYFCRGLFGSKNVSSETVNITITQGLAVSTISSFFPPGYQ
FcγRI, sequence (P12314 16-374): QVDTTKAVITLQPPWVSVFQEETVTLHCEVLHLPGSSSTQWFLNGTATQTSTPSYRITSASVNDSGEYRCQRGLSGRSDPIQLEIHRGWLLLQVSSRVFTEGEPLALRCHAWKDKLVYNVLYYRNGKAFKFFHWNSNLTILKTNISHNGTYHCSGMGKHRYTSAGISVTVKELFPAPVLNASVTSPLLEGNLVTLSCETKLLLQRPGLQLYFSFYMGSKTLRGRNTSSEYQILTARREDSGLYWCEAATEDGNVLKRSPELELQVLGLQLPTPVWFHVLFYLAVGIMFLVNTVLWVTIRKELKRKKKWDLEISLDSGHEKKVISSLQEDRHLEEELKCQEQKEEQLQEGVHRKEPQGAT

Kd (FcRn) | Kd (FcγRIIIA_(F158)) | Kd (FcγRIIIA_(V158)) | Kd (FcγRI) | Kd (FcγRIIA_(H131)) | EC50 (human Claudin18.2) | Molecule
1530 nM | 330 nM | 78.9 nM | 7.23 nM | 2770 nM |  | CM311 (antibody)
1730 nM | 490 nM | 126 nM | 5.95 nM | 6290 nM |  | CMG901 (antibody)
 |  |  |  |  | 2.2 nM | Zolbetuximab analog (antibody, V domains shown) VH: QVQLQQPGAELVRPGASVKLSCKASGYTFTSYWINWVKQRPGQGLEWIGNIYPSDSYTNYNQKFKDKATLTVDKSSSTAYMQLSSPTSEDSAVYYCTRSWRGNSFDYWGQGTTLTVSS VL: DIVMTQSPSSLTVTAGEKVTMSCKSSQSLLNSGNQKNYLTWYQQKPGQPPKLLIYWASTRESGVPDRFTGSGSGTDFTLTISSVQAEDLAVYYCQNDYSYPFTFGSGTKLEIK
